Source: patent publication US20210338838A1 (UNIVERSITY OF UTAH RESEARCH FOUNDATION, published 2021)
Residue numbers refer to the chain shown, from its start.

B1: CFH-Del (CFH of the CFHR3/1 deletion haplotype, V62-Y402-E936) (other)
chain: EDCNELPPRRNTEILTGSWSDQTYPEGTQAIYKCRPGYRSLGNVIMVCRKGEWVALNPLRKCQKRPCGHPGDTPFGTFTLTGGNVFEYGVKAVYTCNEGYQLLGEINYRECDTDGWTNDIPICEVVKCLPVTAPENGKIVSSAMEPDREYHFGQAVRFVCNSGYKIEGDEEMHCSDDGFWSKEKPKCVEISCKSPDVINGSPISQKIIYKENERFQYKCNMGYEYSERGDAVCTESGWRPLPSCEEKSCDNPYIPNGDYSPLRIKHRTGDEITYQCRNGFYPATRGNTAKCTSTGWIPAPRCTLKPCDYPDIKHGGLYHENMRRPYFPVAVGKYYSYYCDEHFETPSGSYWDHIHCTQDGWSPAVPCLRKCYFPYLENGYNQNYGRKFVQGKSIDVACHPGYALPKAQTTVTCMENGWSPTPRCIRVKTCSKSSIDIENGFISESQYTYALKEKAKYQCKLGYVTADGETSGSITCGKDGWSAQPTCIKSCDIPVFMNARTKNDFTWFKLNDTLDYECHDGYESNTGSTTGSIVCGYNGWSDLPICYERECELPKIDVHLVPDRKKDQYKVGEVLKFSCKPGFTIVGPNSVQCYHFGLSPDLPICKEQVQSCGPPPELLNGNVKEKTKEEYGHSEVVEYYCNPRFLMKGPNKIQCVDGEWTTLPVCIVEESTCGDIPELEHGWAQLSSPPYYYGDSVEFNCSESFTMIGHRSITCIHGVWTQLPQCVAIDKLKKCKSSNLIILEEHLKNKKEFDHNSNIRYRCRGKEGWIHTVCINGRWDPEVNCSMAQIQLCPPPPQIPNSHNMTTTLNYRDGEKVSVLCQENYLIQEGEEITCKDGRWQSIPLCVEKIPCSQPPQIEHGTINSSRSSQESYAHGTKLSYTCEGGFRISEENETTCYMGKWSSPPQCEGLPCKSPPEISHGVVAHMSDSYQYGEEVTYKCFEGFGIDGPAIAKCLGEKWSHPPSCIKTDCLSLPSFENAIPMGEKKDVYKAGEQVTYTCATYYKMDGASNVTCINSRWTGRPTCRDTSCVNPPTVQNAYIVSRQMSKYPSGERVRYQCRSPYEMFGDEEVMCLNGNWTEPPQCKDSTGKCGPPPPIDNGDITSFPLSVYAPASSVEYQCQNLYQLEGNKRITCRNGQWSEPPKCLHPCVISREIMENYNIALRWTAKQKLYSRTGESVEFVCKRGYRLSSRSHTLRTTCWDGKLEYPTCAKR
notes: also called 3,1 Deletion (Del)
B2: CFH-V62-H402-E936 (risk variant of full-length CFH) (other)
chain: B1 chain with Y384H
notes: also called CFH-Risk; CFH-risk protein
B3: CFH-Neu (neutral variant of full-length CFH, V62-Y402-D936) (other)
chain: B1 chain with E918D
notes: also called Neutral (Neu)
B4: eCFHT-SK (engineered truncated CFH, I62-Y402, ending in SKSFTL) (other)
chain: EDCNELPPRRNTEILTGSWSDQTYPEGTQAIYKCRPGYRSLGNIIMVCRKGEWVALNPLRKCQKRPCGHPGDTPFGTFTLTGGNVFEYGVKAVYTCNEGYQLLGEINYRECDTDGWTNDIPICEVVKCLPVTAPENGKIVSSAMEPDREYHFGQAVRFVCNSGYKIEGDEEMHCSDDGFWSKEKPKCVEISCKSPDVINGSPISQKIIYKENERFQYKCNMGYEYSERGDAVCTESGWRPLPSCEEKSCDNPYIPNGDYSPLRIKHRTGDEITYQCRNGFYPATRGNTAKCTSTGWIPAPRCTLKPCDYPDIKHGGLYHENMRRPYFPVAVGKYYSYYCDEHFETPSGSYWDHIHCTQDGWSPAVPCLRKCYFPYLENGYNQNYGRKFVQGKSIDVACHPGYALPKAQTTVTCMENGWSPTPRCIRVSKSFTL
notes: Non-natural variant of human CFHT with SK inserted before the C-terminal SFTL; In the Western blot it was expressed from eCFH/T v4.2 in RPE1 cells; also called protective eCFHT-SK; truncated product of eCFH/T v4.2
B5: eCFHT-SE (engineered truncated CFH, I62-Y402, ending in SESFTL) (other)
chain: B4 chain with K429E
notes: The chain is built from the first 445 residues shared by CFH and CFHT, less the 18-residue signal peptide, plus the printed C-terminal SESFTL; His-tagged and purified from HEK293 cells; also called protective eCFHT-SE; truncated product of eCFH/T v4.3
B6: CFHT-Neu/Del (truncated CFH of the neutral and deletion haplotypes, V62-Y402) (other)
chain: EDCNELPPRRNTEILTGSWSDQTYPEGTQAIYKCRPGYRSLGNVIMVCRKGEWVALNPLRKCQKRPCGHPGDTPFGTFTLTGGNVFEYGVKAVYTCNEGYQLLGEINYRECDTDGWTNDIPICEVVKCLPVTAPENGKIVSSAMEPDREYHFGQAVRFVCNSGYKIEGDEEMHCSDDGFWSKEKPKCVEISCKSPDVINGSPISQKIIYKENERFQYKCNMGYEYSERGDAVCTESGWRPLPSCEEKSCDNPYIPNGDYSPLRIKHRTGDEITYQCRNGFYPATRGNTAKCTSTGWIPAPRCTLKPCDYPDIKHGGLYHENMRRPYFPVAVGKYYSYYCDEHFETPSGSYWDHIHCTQDGWSPAVPCLRKCYFPYLENGYNQNYGRKFVQGKSIDVACHPGYALPKAQTTVTCMENGWSPTPRCIRVSFTL
B7: CFHT-V62-H402 (risk variant of truncated CFH) (other)
chain: B6 chain with Y384H
notes: also called CFHT-Risk

What was measured:
[1] = target: T1, monomeric C-reactive protein (CRP) (UniProt P02741 19-224); assay: relative CRP-binding assay, percent of CFH-Risk, detection antibody AbCam OX-24 (#Ab112197)
T1 sequence (looked up): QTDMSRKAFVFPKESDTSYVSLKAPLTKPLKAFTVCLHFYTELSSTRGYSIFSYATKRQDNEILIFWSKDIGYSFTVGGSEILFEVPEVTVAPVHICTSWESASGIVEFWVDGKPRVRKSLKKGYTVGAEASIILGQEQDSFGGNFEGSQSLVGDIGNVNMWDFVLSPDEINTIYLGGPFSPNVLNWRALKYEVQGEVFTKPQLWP

[2] = target: T2, MDA-modified LDL particles; assay: relative MDA-binding assay, percent of CFH-Risk, detection antibody AbCam OX-24 (#Ab112197)
T2 construct: Not a plain protein; also called MDA-LDL; MDA adducts

[3] = target: T2, MDA-modified LDL particles; assay: relative MDA-binding assay, detection antibody AbCam OX-24 (#Ab112197)
[4] = target: T1, monomeric C-reactive protein (CRP); assay: relative CRP-binding assay, detection antibody AbCam OX-24 (#Ab112197)
[5] = target: T1, monomeric C-reactive protein (CRP); assay: rank of binding affinity among six proteins, plate-based binding assays
[6] = target: T2, MDA-modified LDL particles; assay: as above
[7] = target: T2, MDA-modified LDL particles; assay: plate-based binding assay, His-tagged recombinant protein from HEK293 cells

% FH-Risk [1] [%] | % FH-Risk [2] [%] | Binding Potential [3] | Binding Potential [4] | Binding Affinity Rank (1 best to 6 worst) [5] [rank] | Binding Affinity Rank (1 best to 6 worst) [6] [rank] | Kd [7] [nM] | Binder
972 | 145 | 43 | 14 | – | – | – | B1
100 | 100 | 30 | 1 | 6 | 6 | – | B2
956 | 130 | 39 | 14 | – | – | – | B3
– | – | – | – | 1 | 3 | 290 | B4
– | – | – | – | 3 | 4 | 305 | B5
6870 | 94 | 28 | 101 | – | – | – | B6
131 | 35 | 10 | 2 | 5 | 5 | – | B7
